Data taken from patent US9447158B2.

Molecular target: MAPKAP Kinase II (MK2)

Substance	% of … [SEQ ID NO: 124] Reaction Velocity at an Inhibitor Concentration of 100 µM
KALNdRQLGVAA (peptide)	306%
KALNRQdLGVAA (peptide)	357%
KALNRdQLGVAA (peptide)	276%
KALdNRQLGVAA (peptide)	95%
KALNRQLGdVAA (peptide)	260%
